The target in the experiment is H2AK119Ub nucleosome (UniProt P04908). The experiment in a line: cryo-EM structure.

We go through 1 substance from publication doi:10.1101/2023.07.08.548231.

Where “and” joins values, the source holds several entries; their conditions need not be identical. Equal entries are not always repeated.

GST-SSX1 (human SSX1 residues 111-188 with an N-terminal GST tag), sequence (Q16384 111-188): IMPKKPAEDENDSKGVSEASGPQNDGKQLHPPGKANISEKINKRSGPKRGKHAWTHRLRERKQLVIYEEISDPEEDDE

Regarding “GST-SSX1 (human SSX1 residues 111-188 with an N-terminal GST tag) (from UniProt Q16384 111-188) (domain or fragment)”, the stoichiometry N (SSX1 per nucleosome) is 2 and 1.
